Drawing on US20210246218A1 (LYVGEN BIOPHARMA SUZHOU, published 2021), this text covers EC50, binding result and IC50 for one molecule.

Assay [1] has as its target T1, Ly051.
T1 chain: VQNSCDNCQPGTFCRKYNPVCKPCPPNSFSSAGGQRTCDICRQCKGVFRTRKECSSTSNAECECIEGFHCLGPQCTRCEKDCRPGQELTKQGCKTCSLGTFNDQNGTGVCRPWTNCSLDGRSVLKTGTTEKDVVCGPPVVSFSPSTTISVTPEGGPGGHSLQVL
Kind of assay: ELISA, clone 3712-IgG1v coated, CD137 protein titrated (EC50 is a concentration of the CD137 protein); curve only begins to rise: about 0.42 at 100000 ng/mL, no plateau, fit marked ~. Here is the method:
The plate was decanted and washed once; assay diluent was added 200 μL/well. After one-hour incubation at room temperature, the plate was washed with PBST one time. CD137 receptor human/mouse chimeras were diluted in assay diluent to 100 or 10 μg/mL, and then a 4-fold serial dilution in assay diluent for 11 points to final concentrations of 100000, 25000, 6250, 1562.5, 390.63, 97.66, 24.41, 6.10, 1.53, 0.38 and 0.095 ng/mL or 10000, 2500, 625, 156.25, 39.06, 9.77, 2.44, 0.61, 0.15, 0.038 and 0.0095 ng/mL. The diluted CD137 receptor was added to the assay plate, 50 μL/well, in duplicate. The plate was incubated one hour at room temperature and then washed three times with PBST. Goat anti-human IgG-H+L HRP conjugated at 1:100,000 20 dilution was added to the plate at 100 μL/well. The plate was then incubated one hour at room temperature followed by washing with PBST four times. The TMB substrate solution was added at 100 μL/well. The color was allowed to develop for 15 minutes, and was stopped with 100 μL/well 2N H2SO4. Absorbance at 450 nm and 620 nm was determined by a Tecan F200 Pro reader.
(In general: An ELISA detects its analyte on a solid surface through an enzyme-linked reagent.)

Assay [2] has as its target T2, human TIGIT protein (human, UniProt Q495A1 22-141).
T2 sequence (looked up): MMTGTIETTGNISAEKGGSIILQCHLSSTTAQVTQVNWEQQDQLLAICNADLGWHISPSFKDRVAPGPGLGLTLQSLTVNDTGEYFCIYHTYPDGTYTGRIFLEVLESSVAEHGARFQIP
The assay can be described thus: ELISA, protein coated at 1 µg/mL. Here is the method:
(§1) The plate was decanted and washed once; assay diluent was added at 200 μL/well. After a 1-hour incubation at room temperature, the plate was washed with PBST one time. […] These samples were added into the plate 50 μL/well. The plate was incubated 1 hour at room temperature and then washed three times with PBST. Goat anti-human IgG-H+L HRP-conjugated at 1:100,000 dilution or goat anti-mouse IgG (H+L) secondary antibody, HRP, at 1:50,000 dilution was added to the plate at 100 μL/well. The plate was incubated 1 hour at room temperature followed by washing with PBST four times. The TMB substrate solution was added 100 μL/well. The color was permitted to develop for 15 minutes and then 100 μL/well 2N H₂SO₄ was added to terminate the reaction. Absorbance at 450 nm and 620 nm was determined by a Tecan F200 Pro reader.

For assay [3], the target named is human PD-L1 protein (human, UniProt Q9NZQ7 19-238). Kind of assay: ELISA, protein coated at 1 µg/mL. Here is the method:
as §1

For assay [4], the target named is T3, CD137 protein (UniProt Q07011 24-186, limits assumed).
T3 construct: also called CD137 antigen; CD137 receptor
The assay can be described thus: competition ELISA with CD137L: CD137 receptor coated, antibody titrated, CD137L added; A450-A620 falls from about 1.25 to about 0.64 (midpoint of an inhibition curve, called EC50 in the sheet's table). Here is the method: CD137 receptor was diluted in DPBS to 1 μg/mL, and then coated onto an ELISA plate (Corning, Catalog number: 9018, high binding) with a volume of 50 μL (0.05 μg) per well, and incubated at 4° C. overnight. The plate was decanted and washed once; assay diluent was added 200 μL/well. […] The diluted CD137 receptor was added to the assay plate, 50 μL/well, in duplicate. The plate was incubated one hour at room temperature. […] The plate was incubated one hour at room temperature and then washed three times with PBST. Goat anti-human IgG-H+L HRP conjugated at 1:100,000 20 dilution was added to the plate at 100 μL/well. The plate was then incubated one hour at room temperature followed by washing with PBST four times. The TMB substrate solution was added at 100 μL/well. The color was allowed to develop for 15 minutes, and was stopped with 100 μL/well 2N H2SO4. Absorbance at 450 nm and 620 nm was determined by a Tecan F200 Pro reader.

The target of assay [5] is T4, recombinant human CD137 receptor protein (human, UniProt Q07011 24-186).
T4 construct: Coated on ELISA plates; also called recombinant human CD137 protein
Kind of assay: ELISA, huCD137 coated, clone 3712 titrated; full sigmoid, plateau about 1.5. Here is the method: For the data shown in FIGS. 16C-D, chimeric CD137 receptor protein samples were diluted in DPBS to 5 μg/mL and then coated onto an ELISA plate (Corning, Catalog number: 9018, high binding) at 50 μL (0.25 μg) per well, and incubated at 4° C. overnight. The plate was decanted and washed once; assay diluent was added at 200 μL/well. After a 1-hour incubation at room temperature, the plate was washed with PBST one time. […] The plate was incubated 1 hour at room temperature and then washed three times with PBST. Goat anti-human IgG-H+L HRP-conjugated at 1:100,000 dilution or goat anti-mouse IgG (H+L) secondary antibody, HRP, 10 at 1:50,000 dilution was added to the plate at 100 μL/well. The plate was incubated 1 hour at room temperature followed by washing with PBST four times. The TMB substrate solution was added 100 μL/well. The color was permitted to develop for 15 minutes and then 100 μL/well 2N H2SO4 was added to terminate the reaction. Absorbance at 450 nm and 620 nm was determined by a Tecan F200 Pro reader.

B1: Clone 3712-IgG1v (IgG1v/kappa) (antibody)
heavy: QVQLVQSGAEVKKPGASVKVSCKASGYTFAGFEMHWVRQAPGQGLEWMGAIDPKTGGTDYNQKFKDRVTMTRDTSISTAYMELSRLRSDDTAVYYCARDLGYFDVWGQGTLVTVSSASTKGPSVFPLAPSSKSTSGGTAALGCLVKDYFPEPVTVSWNSGALTSGVHTFPAVLQSSGLYSLSSVVTVPSSSLGTQTYICNVNHKPSNTKVDKKVEPKSCDKTHTCPPCPAPELLGPSVFLFPPKPKDTLMISRTPEVTCVVVDVEHEDPEVKFNWYVDGVEVHNAKTKPREEQYNSTYRVVSVLTVLHQDWLNGKEYKCKVSNKALPAPIEKTISKAKGQPREPQVYTLPPSREEMTKNQVSLTCLVKGFYPSDIAVEWESNGQPENNYKTTPPVLDSDGSFFLYSKLTVDKSRWQQGNVFSCSVMHEALHNHYTQKSLSLSPGK
light: DIQMTQSPSSLSASVGDRVTITCRASQDIRSNLNWYQQKPGGAVKLLIYYTSRLHSGVPSRFSGSGSGTDYTLTISSLQPEDFATYFCQQSEKLPRTFGGGTKVEIRRTVAAPSVFIFPPSDEQLKSGTASVVCLLNNFYPREAKVQWKVDNALQSGNSQESVTEQDSKDSTYSLSSTLTLSKADYEKHKVYACEVTHQGLSSPVTKSFNRGEC
notes: copies: 2 + 2
As to B1, the EC50 (in general, the concentration that produces a half-maximal response) in assay [1] is approximately 466 µg/mL; in assay [5] it was 0.0572 µg/mL. Besides, the binding result in assay [2] was “no binding (tested: 10 µg/mL and 1 µg/mL)”; in assay [3] it was “no binding (tested: 10 µg/mL and 1 µg/mL)”. For the same molecule, in assay [4], the IC50 (commonly the point on the concentration scale where inhibition reaches its midpoint) came to 0.0643 µg/mL.
